In patent US20220056111A1 (YUROGEN BIOSYSTEMS, published 2022):

Experiments:
[1] = target: SARS-CoV-2 Spike S1 protein (SARS-CoV-2, UniProt P0DTC2 16-685)
SARS S1 and S2 protein = target: T1, SARS S1 and S2 protein (SARS, UniProt P59594 14-1195); assay: direct ELISA, OD450
T1 construct: domain: S1 and S2

MERS-CoV Spike protein = MERS-CoV Spike protein (MERS-CoV, UniProt K9N5Q8 18-1296); assay: direct ELISA, OD450
HKU1 S1 and S2 protein = target: T2, HKU1 S1 and S2 protein (HKU1, UniProt Q5MQD0 13-1300); assay: direct ELISA, OD450
T2 construct: domain: S1 and S2
T2 sequence: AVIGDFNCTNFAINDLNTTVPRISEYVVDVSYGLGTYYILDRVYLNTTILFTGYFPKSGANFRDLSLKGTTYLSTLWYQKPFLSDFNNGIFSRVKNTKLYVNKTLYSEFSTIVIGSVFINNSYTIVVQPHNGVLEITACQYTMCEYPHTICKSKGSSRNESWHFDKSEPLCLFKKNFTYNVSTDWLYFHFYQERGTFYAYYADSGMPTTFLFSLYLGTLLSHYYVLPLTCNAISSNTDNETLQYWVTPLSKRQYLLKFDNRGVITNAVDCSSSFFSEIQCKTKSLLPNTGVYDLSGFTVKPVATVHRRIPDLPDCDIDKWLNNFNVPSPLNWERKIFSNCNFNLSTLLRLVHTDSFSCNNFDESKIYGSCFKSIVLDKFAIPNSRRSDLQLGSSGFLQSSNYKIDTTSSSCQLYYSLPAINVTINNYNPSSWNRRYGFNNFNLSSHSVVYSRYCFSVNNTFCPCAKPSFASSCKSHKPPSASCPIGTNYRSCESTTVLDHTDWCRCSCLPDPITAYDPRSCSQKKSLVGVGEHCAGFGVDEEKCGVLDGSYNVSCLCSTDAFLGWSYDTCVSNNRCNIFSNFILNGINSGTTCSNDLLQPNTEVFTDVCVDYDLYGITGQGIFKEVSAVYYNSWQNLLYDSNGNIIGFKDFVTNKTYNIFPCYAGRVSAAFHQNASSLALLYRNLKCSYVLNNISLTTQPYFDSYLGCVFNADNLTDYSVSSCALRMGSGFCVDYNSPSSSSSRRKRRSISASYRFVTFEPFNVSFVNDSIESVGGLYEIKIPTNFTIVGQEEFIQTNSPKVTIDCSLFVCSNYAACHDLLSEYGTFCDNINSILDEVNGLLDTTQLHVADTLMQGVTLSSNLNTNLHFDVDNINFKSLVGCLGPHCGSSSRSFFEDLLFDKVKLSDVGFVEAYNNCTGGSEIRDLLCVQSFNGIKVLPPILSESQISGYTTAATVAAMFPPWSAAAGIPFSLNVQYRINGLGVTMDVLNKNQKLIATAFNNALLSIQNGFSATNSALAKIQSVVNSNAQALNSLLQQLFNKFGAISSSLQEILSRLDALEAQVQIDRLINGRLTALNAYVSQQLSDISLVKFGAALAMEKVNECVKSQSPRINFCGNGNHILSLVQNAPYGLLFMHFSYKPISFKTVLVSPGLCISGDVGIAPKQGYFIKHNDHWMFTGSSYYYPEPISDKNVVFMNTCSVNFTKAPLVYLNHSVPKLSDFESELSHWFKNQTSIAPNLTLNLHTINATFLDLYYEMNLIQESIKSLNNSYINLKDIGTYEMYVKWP

HcoV-NL63 S protein = target: T3, HcoV-NL63 S protein (HcoV-NL63, UniProt Q6Q1S2 19-1296); assay: direct ELISA, OD450
T3 construct: also called hCov-NL63 S1
T3 sequence: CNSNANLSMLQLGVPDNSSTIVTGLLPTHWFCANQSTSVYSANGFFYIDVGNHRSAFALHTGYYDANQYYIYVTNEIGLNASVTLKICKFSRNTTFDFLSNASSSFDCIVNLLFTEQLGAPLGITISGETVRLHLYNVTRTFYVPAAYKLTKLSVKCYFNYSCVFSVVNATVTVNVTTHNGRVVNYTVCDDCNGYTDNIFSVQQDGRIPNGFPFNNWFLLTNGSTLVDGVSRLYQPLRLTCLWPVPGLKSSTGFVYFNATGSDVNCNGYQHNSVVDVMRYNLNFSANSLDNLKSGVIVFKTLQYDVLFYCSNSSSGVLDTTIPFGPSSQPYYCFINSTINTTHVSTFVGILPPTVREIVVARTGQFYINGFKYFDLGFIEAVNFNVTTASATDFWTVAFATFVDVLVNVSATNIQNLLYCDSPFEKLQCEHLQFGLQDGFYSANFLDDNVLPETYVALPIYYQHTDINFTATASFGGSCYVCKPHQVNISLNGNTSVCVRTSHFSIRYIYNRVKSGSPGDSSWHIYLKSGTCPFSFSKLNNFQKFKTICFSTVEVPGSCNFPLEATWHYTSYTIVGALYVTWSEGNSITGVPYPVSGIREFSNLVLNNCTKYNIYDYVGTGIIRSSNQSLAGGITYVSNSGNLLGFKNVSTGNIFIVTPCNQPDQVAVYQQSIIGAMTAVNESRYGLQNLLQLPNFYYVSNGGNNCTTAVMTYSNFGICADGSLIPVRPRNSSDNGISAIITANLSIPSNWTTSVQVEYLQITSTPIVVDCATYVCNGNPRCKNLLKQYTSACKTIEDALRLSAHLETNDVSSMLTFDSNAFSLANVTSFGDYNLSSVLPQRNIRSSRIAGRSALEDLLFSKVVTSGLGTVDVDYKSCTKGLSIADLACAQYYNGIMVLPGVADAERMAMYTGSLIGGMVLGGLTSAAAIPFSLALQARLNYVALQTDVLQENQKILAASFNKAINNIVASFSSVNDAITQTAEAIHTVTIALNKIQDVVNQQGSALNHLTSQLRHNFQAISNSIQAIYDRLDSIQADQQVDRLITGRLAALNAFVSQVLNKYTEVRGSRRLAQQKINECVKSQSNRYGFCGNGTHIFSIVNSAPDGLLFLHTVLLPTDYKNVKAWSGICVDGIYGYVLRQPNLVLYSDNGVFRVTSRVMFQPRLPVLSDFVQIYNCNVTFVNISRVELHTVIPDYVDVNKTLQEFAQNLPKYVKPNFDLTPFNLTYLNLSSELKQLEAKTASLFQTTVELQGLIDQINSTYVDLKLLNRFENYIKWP

B1: rabbit monoclonal antibody 1H1 against the SARS-CoV-2 S1 (antibody, V domains shown)
VH: QSLEESGGDLVKPGASLTLTCTASGFSFSSGYDMCWVRQAPGKGLEWIACIGTGSSGNIYYASWAKGRFTISKTSSTTVTLQMTSLTAADTATYFCARDDADYAGPDYFNLWGPGTLVTVSS
VL: DIVMTQTPASVSEPVGGTVTIKCQASESISNWLAWYQQKPGQPPKLLIYAAFTLASGVPSRFKGSGSGTQFTLTINGVECADAATYYCQQTYSSRDVDNVFGGGTEVVVKG
Kd [1]: 2.06 nM | koff [1]: 0.000273 s⁻¹ | kon [1]: 133000 M⁻¹ s⁻¹ | binding result (SARS S1 and S2 protein): no binding | binding result (MERS-CoV Spike protein): no binding | binding result (HKU1 S1 and S2 protein): no binding | binding result (HcoV-NL63 S protein): no binding

B2: rabbit monoclonal antibody 1D2 against the SARS-CoV-2 S1 (antibody, V domains shown)
VH: QSVEESGGRLVTPGTSLTLTCTVSGIDIETYWMSWVRQAPGKGLEWIAIITSHDHSGYANWAEGRFTISKTSTTVTLTITDLQPSDTGTYFCAKDVGHSTYDLWGPGTLVTVSS
VL: AAVLTQTPSPVSAAVGGTVTISCQSSESVLSNNRLSWYQQKPGQPPKLLIYAASTLASGVPSRFKGRGSGTQFTLTISDVQCDDAAMYVCAGAFSGSSDTRAFGGGTEVVVKG
Kd [1]: 3.55 nM | koff [1]: 0.000259 s⁻¹ | kon [1]: 72900 M⁻¹ s⁻¹ | binding result (HcoV-NL63 S protein): no binding

B3: rabbit monoclonal antibody 9A5 against the SARS-CoV-2 S1 (antibody, V domains shown)
VH: QSVEESGGRLVTPGTPLTLTCTVSGFSLSAYQMIWVRQTPGKGLEYIGIMHTGTSAYYANWAKGRFTISKTSSTTVDLKMTSPTTEDTATYFCGRNLNEGFTGAYPFNLWGPGTLVAVSS
VL: DVVMTQTPASVEAAVGGTVTIKCQASQSIGSNLAWYQKKPGQPPKLLIYQASNLASGVPSRFKGSGSGTQFTLTISDLECADAATYYCQMNYYISSSYTYTFGGGTEVVVKG
Kd [1]: 0.87 nM | koff [1]: 0.000115 s⁻¹ | kon [1]: 132000 M⁻¹ s⁻¹ | binding result (SARS S1 and S2 protein): no binding | binding result (MERS-CoV Spike protein): no binding | binding result (HKU1 S1 and S2 protein): no binding | binding result (HcoV-NL63 S protein): no binding

B4: rabbit monoclonal antibody 7G5 against the SARS-CoV-2 S1 (antibody, V domains shown)
VH: QEQLEESGGDLVKPGASLTLTCTASGFSFSSAYYMCWVRQAPGKGLEWIACIGVDSGGNSYYASWAKGRFTISTTSSTTVTLQMTSLTAADKATYFCTRSFSLWGPGTLVTISS
VL: RKWLTQTASSVSAAVGGTVTISCQASQSVYNNDNLAWFQQRPGQPPKLLIYLASNLASGVPPRFSGSGSGTQFTLTISDVQCDDAATYYCLGGYDCSNADCHAFGGGTEVVVKG
Kd [1]: 2.14 nM | koff [1]: 0.000261 s⁻¹ | kon [1]: 122000 M⁻¹ s⁻¹ | binding result (SARS S1 and S2 protein): no binding | binding result (MERS-CoV Spike protein): no binding | binding result (HKU1 S1 and S2 protein): no binding | binding result (HcoV-NL63 S protein): no binding

B5: rabbit monoclonal antibody 1A3 against the SARS-CoV-2 S1 (antibody, V domains shown)
VH: QSLEESGGRLVTPGTPLTLTCTVSGFSFSSYHMGWVRQAPGEGLEWIGTLIGIAGNTYYASWAKGRFSISKTSTTVDLKMTSPTTEDTATYWCARIVTATFEFWGPGTLVTVSS
VL: AQVLTQTPSPVSAAVGGTVTISCQASQSVNMNLLSWFQQKPGQPPKLLIYQASNLASGVSARFKGSGSGTQFTLTINEIQCDDAATYYCQGDMGGWMFPFGGGTEVVVTG
Kd [1]: 0.537 nM | koff [1]: 9.34e-05 s⁻¹ | kon [1]: 174000 M⁻¹ s⁻¹ | binding result (SARS S1 and S2 protein): no binding | binding result (MERS-CoV Spike protein): no binding | binding result (HKU1 S1 and S2 protein): no binding | binding result (HcoV-NL63 S protein): no binding
